± gives the uncertainty stated by the source.
Assay: self-splicing fitness, log relative to wild type (ln ratio); higher = more splicing; Tetrahymena group I intron in knt gene, E. coli kanamycin selection, DiMSum; sequences stand for … in CUCUCU…GGAGGGAAAAGUUAUCAGGCAUGCACCUGGUAGCUAGUCUUUAAACCAAUAGAUUGCAUCGGUUUAAAAGGCAAGACCGUCAAAUUGCGGGAAAGGGGUCAACAGCCGUUCAGUACCAAGUCUCAGGGGAAACUUUGAGAUGGCCUUGCAAAGGGUAUGGUAAUAAGCUGACGGACAUGGUCCUAACCACGCAGCCAAGUCCUAAGUCAACAGAUCUUCUGUUGAUAUGGAUGCAGUUCACAGACUAAAUGUCGGUCGGGGAAGAUGUAUUCUUCUCAUAAGAUAUAGUCGGACCUCUCCUUAAUGGGAGCUAGCGGAUGAAGUGAUGCAACACUGGAGCCGCUGGGAACUAAUUUGUAUGCGAAAGUAUAUUGAUUAGUUUUGGAGUACUCGUGGUCG
Summary of the method: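 Library with all eight P1ex-region intron nucleotides randomised, intron inside the knt kanamycin-resistance gene on pET-22b(+), in E. coli BL21(DE3). Cells grew overnight at 37°C or 30°C on LB agar with or without 25 μg/mL kanamycin (plus 100 μg/mL carbenicillin, 50 μM IPTG, 0.2% rhamnose), in six replicate transformations. Pooled colonies were amplicon-sequenced on Illumina HiSeq 2500. DiMSum fitness is the error-weighted combination of wild-type-normalised replicate fold changes, kanamycin versus none.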

Sequence | self-splicing fitness (ln) (30 °C) | self-splicing fitness (ln) (37 °C)
GUAAAGCAAUAUUACGUCUU | -0.455 ± 0.1 | 0.291 ± 0.12
AGGAAGCAAUAUUACGCCUA | -0.554 ± 0.12 | -0.497 ± 0.14
AUACAGCAAUAUUACGAACU | -0.142 ± 0.079 | 0.0661 ± 0.099
GUUAAGCAAUAUUACGAGUA | -2.5 ± 0.12 | -1.32 ± 0.095
GUUCAGCAAUAUUACGUUUG | -2.75 ± 0.15 | -1.22 ± 0.14
UAUUAGCAAUAUUACGAAUC | -3.46 ± 0.23 | -0.913 ± 0.2
UAACAGCAAUAUUACGGGCA | -0.826 ± 0.085 | -0.324 ± 0.078
UCCGAGCAAUAUUACGAAUG | -2.81 ± 0.17 | -2.94 ± 0.21
UAUUAGCAAUAUUACGAAAC | – | -2.53 ± 0.3
AGAUAGCAAUAUUACGACAC | -1.11 ± 0.12 | -0.486 ± 0.15
AUUCAGCAAUAUUACGGCUA | 0.293 ± 0.09 | -0.022 ± 0.084
UGAAAGCAAUAUUACGACGU | -1.06 ± 0.065 | -0.131 ± 0.084
ACUGAGCAAUAUUACGCGAA | -3.01 ± 0.33 | -2.77 ± 0.36
AUGCAGCAAUAUUACGUUUA | -2.04 ± 0.095 | -1.21 ± 0.089
UCAAAGCAAUAUUACGCGUG | -1.31 ± 0.057 | -0.871 ± 0.066
CCCGAGCAAUAUUACGUGCU | -3.55 ± 0.21 | -1.32 ± 0.16
ACAUAGCAAUAUUACGUUUU | -3.76 ± 0.16 | -2.59 ± 0.17
AACCAGCAAUAUUACGGAUA | -0.931 ± 0.069 | -0.176 ± 0.074
GAAAAGCAAUAUUACGAGCA | -0.889 ± 0.063 | -0.307 ± 0.076
CAUCAGCAAUAUUACGUCAC | -3.06 ± 0.15 | -2.68 ± 0.23
UUACAGCAAUAUUACGGUUA | -0.071 ± 0.058 | 0.344 ± 0.07
CGGAAGCAAUAUUACGACGA | -1.75 ± 0.21 | -0.502 ± 0.15
CCGUAGCAAUAUUACGCCGU | -3 ± 0.44 | -2.16 ± 0.27
AAGAAGCAAUAUUACGUUCU | -2.55 ± 0.11 | -1.26 ± 0.1
AAGUAGCAAUAUUACGAGCG | -0.709 ± 0.14 | -1.11 ± 0.19

Sequence | self-splicing fitness (ln) (30 °C) | self-splicing fitness (ln) (37 °C)
ACUAAGCAAUAUUACGAAGC | -3.67 ± 0.21 | -3.25 ± 0.22
UGCCAGCAAUAUUACGACGU | -1.75 ± 0.14 | -1.26 ± 0.14
GCGGAGCAAUAUUACGUUAC | -1.51 ± 0.22 | -2.36 ± 0.39
UCAUAGCAAUAUUACGAGUU | -2.66 ± 0.34 | -1.56 ± 0.36
CCCAAGCAAUAUUACGGAUU | -2.56 ± 0.12 | -2.71 ± 0.16
UCAUAGCAAUAUUACGUAAU | -3.87 ± 0.48 | -2.61 ± 0.28
CGUGAGCAAUAUUACGUGUC | -3 ± 0.4 | -3.04 ± 0.43
GACCAGCAAUAUUACGCCCG | -1.72 ± 0.12 | -0.754 ± 0.13
GUGAAGCAAUAUUACGCGUC | -2.19 ± 0.19 | -0.692 ± 0.16
UCGCAGCAAUAUUACGCGCG | -3.58 ± 0.29 | -2.08 ± 0.27
UCCUAGCAAUAUUACGACGA | 0.168 ± 0.12 | 0.868 ± 0.17
GGCAAGCAAUAUUACGCACU | -0.587 ± 0.06 | -0.483 ± 0.075
AGUCAGCAAUAUUACGUACC | -0.711 ± 0.15 | 0.605 ± 0.21
GAAAAGCAAUAUUACGUUGC | -3.83 ± 0.15 | -2.67 ± 0.14
AAGCAGCAAUAUUACGAAGA | -3.03 ± 0.19 | -1.44 ± 0.097
AUACAGCAAUAUUACGAAAG | -2.62 ± 0.19 | -0.9 ± 0.17
GGACAGCAAUAUUACGGAGU | -1.61 ± 0.12 | -1.12 ± 0.11
CGCUAGCAAUAUUACGCCAA | – | -0.881 ± 0.32
AGUAAGCAAUAUUACGGCGU | -0.683 ± 0.073 | 0.246 ± 0.095
GACAAGCAAUAUUACGAUUG | -1.77 ± 0.078 | -1.54 ± 0.14
CCUAAGCAAUAUUACGUAAA | -3.49 ± 0.24 | -2.43 ± 0.16
CUAUAGCAAUAUUACGGGUU | -3.13 ± 0.23 | -1.38 ± 0.19
GGCGAGCAAUAUUACGGGGU | -3.47 ± 0.25 | –
UCAGAGCAAUAUUACGCGCC | -2.37 ± 0.46 | –
UAUUAGCAAUAUUACGCAGC | -3.88 ± 0.24 | -2.56 ± 0.31

Sequence | self-splicing fitness (ln) (30 °C) | self-splicing fitness (ln) (37 °C)
CACCAGCAAUAUUACGAUUC | -2.18 ± 0.094 | -2.32 ± 0.18
CGAUAGCAAUAUUACGAUCA | -0.106 ± 0.06 | 0.441 ± 0.087
GAAGAGCAAUAUUACGACGU | -0.922 ± 0.16 | -0.536 ± 0.18
UUAAAGCAAUAUUACGAAUG | -0.609 ± 0.096 | 0.0465 ± 0.14
AAGCAGCAAUAUUACGGUCA | -1.19 ± 0.088 | 0.242 ± 0.1
AUUAAGCAAUAUUACGUGUC | -3.58 ± 0.21 | -1.02 ± 0.16
CCUCAGCAAUAUUACGAAUU | -2.53 ± 0.18 | -2.13 ± 0.2
ACGCAGCAAUAUUACGCAGA | -2.74 ± 0.18 | -1.92 ± 0.12
CGUAAGCAAUAUUACGCAGG | -2.25 ± 0.094 | -1.02 ± 0.11
GCCAAGCAAUAUUACGCCGC | -2.92 ± 0.31 | -1.02 ± 0.28
UAAGAGCAAUAUUACGUCCG | -3.27 ± 0.41 | –
UGCAAGCAAUAUUACGUGGU | -4.13 ± 0.17 | -2.84 ± 0.16
AGAAAGCAAUAUUACGCGUA | -1.71 ± 0.1 | -0.388 ± 0.082
GCCAAGCAAUAUUACGGGUC | -3.34 ± 0.18 | -2.8 ± 0.27
UUUAAGCAAUAUUACGAAGC | -1.88 ± 0.32 | -0.328 ± 0.42
GCCAAGCAAUAUUACGAAUU | -3.39 ± 0.13 | -1.51 ± 0.1
GCCGAGCAAUAUUACGCGGU | -3.47 ± 0.18 | -3.36 ± 0.42
GAUAAGCAAUAUUACGUGUA | -2.1 ± 0.14 | -1.04 ± 0.14
CCUUAGCAAUAUUACGUCGG | -3.99 ± 0.26 | -1.37 ± 0.15
GCUUAGCAAUAUUACGACUA | -1.34 ± 0.22 | -0.593 ± 0.2
GACUAGCAAUAUUACGUAGA | -0.815 ± 0.077 | -1.17 ± 0.097
GCAUAGCAAUAUUACGAGUU | -3.15 ± 0.13 | -1.33 ± 0.1
CUCCAGCAAUAUUACGCCGA | -2.27 ± 0.42 | –
GCCUAGCAAUAUUACGUGGC | -3.15 ± 0.32 | -1.6 ± 0.33
AUGGAGCAAUAUUACGUUCG | -1.89 ± 0.14 | -0.826 ± 0.19

Sequence | self-splicing fitness (ln) (30 °C) | self-splicing fitness (ln) (37 °C)
CCAAAGCAAUAUUACGGUCA | -3.54 ± 0.35 | -1.78 ± 0.25
UGUGAGCAAUAUUACGCGUA | -2.35 ± 0.34 | -0.703 ± 0.27
GAAAAGCAAUAUUACGCGGG | -3.37 ± 0.2 | -2.21 ± 0.18
CUCGAGCAAUAUUACGGUGG | -2.25 ± 0.13 | -1.75 ± 0.17
GACCAGCAAUAUUACGUGAG | -1.33 ± 0.055 | -1 ± 0.064
ACUCAGCAAUAUUACGCCGA | -3.36 ± 0.39 | -2.3 ± 0.28
CUGUAGCAAUAUUACGCGGC | -2.51 ± 0.47 | -2.14 ± 0.3
CCGUAGCAAUAUUACGGAGA | -3.01 ± 0.28 | -2.32 ± 0.38
CAACAGCAAUAUUACGAUGA | -1.53 ± 0.12 | -0.678 ± 0.089
GAUAAGCAAUAUUACGCUUU | -1.7 ± 0.14 | -2.17 ± 0.21
CACAAGCAAUAUUACGAAUU | -3.63 ± 0.26 | -2.75 ± 0.21
CACUAGCAAUAUUACGAGCA | -3.42 ± 0.18 | -0.879 ± 0.11
AAAUAGCAAUAUUACGAUGG | -2.87 ± 0.17 | -1.97 ± 0.2
CCCCAGCAAUAUUACGCACG | -2.64 ± 0.11 | -2.2 ± 0.17
AAAUAGCAAUAUUACGCUGA | -2.31 ± 0.16 | -1.29 ± 0.18
AUUAAGCAAUAUUACGUAAG | -0.562 ± 0.12 | -0.864 ± 0.19
UGCGAGCAAUAUUACGAUAG | -3.32 ± 0.27 | -1.7 ± 0.38
GUGGAGCAAUAUUACGGCUA | -1.06 ± 0.48 | -0.218 ± 0.35
UACCAGCAAUAUUACGCCUC | -2.32 ± 0.19 | -0.554 ± 0.18
UCGCAGCAAUAUUACGAUAG | -2.26 ± 0.15 | -1.26 ± 0.17
UUGCAGCAAUAUUACGUUAA | -1.55 ± 0.1 | -0.515 ± 0.089
CAAAAGCAAUAUUACGUCGU | -3.83 ± 0.12 | -1.54 ± 0.1

Source: the supplement of paper PMC7877785
